Assays:
[1] = Acute kidney toxicity after administration; format: in vivo, ddY mouse; conditions: positive control, 8 mg/kg s.c., bred for 2 days
Method: The severity of renal damage was evaluated from the plasma creatinine level and plasma urea nitrogen concentration 6 days after the start of administration. The plasma creatinine concentration was measured using a commercially available measurement kit (LabAssay, manufactured by Wako Pure Chemical Industries, Ltd.). Plasma urea nitrogen concentration was measured using a commercially available measurement kit (DIUR-100, manufactured by BioAssySystem). Mercury chloride was subcutaneously injected at 8 mg/kg, the group bred for 2 days was used as a positive control, and the results were compared.

[2] = Mean particle size and zeta potential by Zetasizer Nano ZS; format: physicochemical; conditions: for physicochemical properties (particle size and zeta potential) of the labeled compound versus the unlabeled compound: stated in words
From the text: 1.1 equivalents of Boc-Ser(t-Bu)-OH (manufactured by Watanabe Chemical Industries, Ltd.), 1.1 equivalents of 1-[bis(dimethylamino)methylene]-1H-benzotriazolium 3-oxide hexafluorophosphate (HBTU) (manufactured by Merck Millipore), 1.1 equivalents of anhydrous 1-hydroxy-1H-benzotriazole (HOBt) (manufactured by Watanabe Chemical Industries, Ltd.) and 2.2 equivalents of N,N-diisopropyl ethylamine (DIPEA), each to the total number of amino groups of poly-L-lysine hydrobromide (manufactured by Sigma-Aldrich Co. LLC., P6516-100M, number average molecular weight: 4000-15000) were mixed in DMF/DMSO (1:1). Then, the reaction mixture was reacted by stirring at room temperature until the ninhydrin test yielded negative results on TLC analysis. After completion of coupling, this solution was purified by precipitation with diethylether three times. The precipitates thereof were dissolved in a trifluoroacetic acid (TFA) cocktail (95% TFA, 2.5% […] (TIS) and 2.5% purified water) to deprotect the Boc group and t-Bu group (protecting group of oxygen atom of serine). Then, the reaction mixture was incubated at room temperature for 90 min. After completion of deprotection, the reaction mixture was purified by precipitation with diethylether three times.

B16-BL6/Luc cells = assay: Renal cell carcinoma proliferation suppressive activity in renal cell carcinoma model mouse; format: in vivo, C57BL/6J mouse
Method: The renal cell carcinoma model was produced by injecting firefly luciferase gene-labeled B16-BL6 cells (B16-BL6/Luc cells, 2.5×10^5 cells) together with Matigel (registered trade mark) Matrix in the renal cortex of the right kidney of C57BL/6J mouse. […] 14 days after tumor inoculation, 2.5 mg of D-Luciferin was intraperitoneally injected into the mouse under anesthesia by intraperitoneal injection of triple anesthesia (medetomidine (0.3 mg/kg), midazolam (2 mg/kg), butorphanol (2.5 mg/kg)), and imaged using LAS-4000 IVIS Imaging System (FUJIFILM, Japan). Then, the mouse was euthanized, the kidneys were isolated, and the luciferase activity in the tissue was measured with a luminometer (Lumat LB9507, EG&G Berthold, Bad Wild-bad, Germany). From the obtained luciferase activity, the number of cancer cells in the kidney was calculated using a regression line. In addition, the body weight of the mouse was measured immediately after the tumor inoculation administration and 14 days after the tumor inoculation.

[3] = Releasability of serine and biodegradability: PD-10 fractionation of kidney homogenate radioactivity; conditions: 3 hr after intravenous administration
Method: The kidney after blood removal was immediately ice-cooled, purified water (4 mL) was added and homogenized. A saturated potassium chloride solution (1 mL) was added to the prepared kidney homogenate, and the mixture was allowed to stand at 4° C. overnight and then centrifuged. The centrifuged supernatant (1 mL) was developed on a PD-10 column with 0.1 M acetate buffer (pH 6.0), and the radioactivity of the fraction was measured.

[Cl][Hg][Cl] [mercury chloride, Mercury chloride]
plasma creatinine level ([1]; FIG. 8(A)): increase
plasma urea nitrogen concentration ([1]; FIG. 8(B)): increase
histological section of kidney tissue ([1]; FIG. 8(C)): infiltration and necrosis of inflammatory cells and damaged cells were observed

FITC-labeled serine-modified poly-L-lysine [FITC-labeled compound (Ia)]
physicochemical properties (particle size and zeta potential) of the labeled compound versus the unlabeled compound [2]: the same as those of compound (Ia)

^90Y-labeled serine-modified poly-L-lysine [^90Y-labeled compound (Ia)]
luciferase luminescence derived from cancer cells (B16-BL6/Luc cells; 14 days after tumor inoculation, vs PBS, FIG. 9(B)): remarkably suppressed as compared with that of mouse administered with PBS
growth of the number of cancer cells in the kidney (B16-BL6/Luc cells; i.v. immediately after tumor inoculation, 14 days after inoculation, vs PBS, FIG. 9(A)): remarkably suppressed
body weight of mouse (B16-BL6/Luc cells; immediately after and 14 days after tumor inoculation, FIG. 9(C)): did not affect

^111In-labeled PAMAM(G3)
mean particle size ([2]; PBS (pH 7.4), 1 mg/mL): 4.20±0.09 nm
zeta potential ([2]; PBS (pH 7.4), 1 mg/mL): 4.56±0.81 mV
physicochemical properties (particle size and zeta potential) of the labeled compound versus the unlabeled compound [2]: also the same

^111In-labeled poly-L-lysine
decomposition in the kidney [3]: easily decomposed in the kidney
radioactivity in high / low molecular weight fraction, kidney homogenate ([3]; PD-10 column): mainly on the low molecular weight fraction side
physicochemical properties (particle size and zeta potential) of the labeled compound versus the unlabeled compound [2]: the same as those of poly-L-lysine

^111In-labeled serine-modified PAMAM(G3)
physicochemical properties (particle size and zeta potential) of the labeled compound versus the unlabeled compound [2]: also the same

^111In-labeled serine-modified poly-L-lysine [^111In-labeled compound (Ia)]
physicochemical properties (particle size and zeta potential) of the labeled compound versus the unlabeled compound [2]: the same as those of compound (Ia)

— patent US20220362278A1, “RENAL TARGETING-TYPE DRUG DELIVERY CARRIER HAVING EXCELLENT BIODEGRABILITY” (priority 2019, published 2022)
